Target: human GLP-1 receptor (human, UniProt P43220 24-463)
Test: cell-based or functional assay

in vitro GLP-1 activity (intracellular cAMP, EC50 compared) | Binder
2 to 3 times lower activity than the dual function proteins with other GLP-1 mutant sequences | DFD23 (Fc fusion) HGEGTFTSDVSSYLEGQAAKEFIAWLVKGRGEKEKEEQEERETKTPECPSHTQPLGVFLFPPKPKDTLMISRTPEVTCVVVDVSQEDPEVQFNWYVDGVEVHNAKTKPREEQFNSTYRVVSVLTVLHQDWLNGKEYKCKVSNKGLPSSIEKTISKAKGQPREPQVYTLPPSQEEMTKNQVSLTCLVKGFYPSDIAVEWESNGQPENNYKTTPPVLDSDGSFFLYSRLTVDKSRWQEGNVFSCSVMHEALHNHYTQKSLSLSLGKGGGGSGGGGSGGGGSHPIPDSSPLLQFGGQVRQRYLYTDDAQQTEAHLEIREDGTVGGAADQSPESLLQLKALKPGVIQILGVKTSRFLCQRPDGALYGSLHFDPEACSFREEIRPDGYNVYQSEAHGLPLHLPGNKSPHRDPAPRGPARFLPLPGLPPALPEPPGILAPQPPDVGSSDPLSMVTGLEAVRSPSYAS
~2 times higher activity than the dual function proteins DFD69, DFD112 and DFD114 | DFD59: GLP1(GEG)-HyFc40 (Fc fusion) HGEGTFTSDVSSYLEEQAAKEFIAWLVKGGGEKEKEEQEERETKTPECPSHTQPLGVFLFPPKPKDTLMISRTPEVTCVVVDVSQEDPEVQFNWYVDGVEVHNAKTKPREEQFNSTYRVVSVLTVLHQDWLNGKEYKCKVSNKGLPSSIEKTISKAKGQPREPQVYTLPPSQEEMTKNQVSLTCLVKGFYPSDIAVEWESNGQPENNYKTTPPVLDSDGSFFLYSRLTVDKSRWQEGNVFSCSVMHEALHNHYTQKSLSLSLGK

From patent US20250270269A1 (YUHAN, published 2025)
